From US20250011363A1, “OPTIMIZED SHORTENED PEPTIDE THAT BINDS TO ACETYLCHOLINE RECEPTOR, AND USE THEREOF” (SKINMED CO., LTD., priority 2021, published 2025)

Experiments:
acetylcholine receptor [1] = experiment: SPR, acetylcholine receptor on CM5 chip, peptide 10 µM
[2] = target: acetylcholine receptor protein; experiment: SPR, affinity against the reference Synake
[3] = target: acetylcholine receptor protein; experiment: SPR, receptor on CM5 chip, method of Example 1 (FIG. 3)
[4] = target: acetylcholine receptor protein; experiment: SPR (Biacore 3000), receptor immobilised on CM5 chip, peptide in solution; given as 'affinity'
acetylcholine receptor [5] = experiment: SPR, acetylcholine receptor immobilized on CM5 chip, peptide at 10 uM
acetylcholine receptor [6] = experiment: SPR, acetylcholine receptor immobilized on chip, peptide at 10 uM
acetylcholine receptor [7] = experiment: SPR, AchR immobilized on chip
acetylcholine receptor [8] = experiment: SPR, peptide at 10 uM on immobilised AchR
[9] = target: acetylcholine receptor protein; experiment: SPR, concentration series (FIG. 9); given as 'affinity'

Row | Binder | Binding affinity (RU) (acetylcholine receptor [1]) | other results
1 | RKSLLR [Espep2-6mer] | – | fold higher affinity compared to Synake [2]: 40 times; RU value [3]: 177 RU; Kd [4]: 57 µM
2 | RQQRKR [6mer-2-562] | 136 RU | –
3 | KLYLRR [6mer-2-573] | 121 RU | –
4 | KGRLRK [6mer-2-590] | 148 RU | –
5 | KGVYRK [6mer-2-574] | 153 RU | –
6 | RWQQRK [6mer-2-589] | 153 RU | –
7 | RYTFR [5mer-899] | – | Binding affinity (RU) (acetylcholine receptor [5]): 31 RU
8 | KRVQRR [6mer-2-577] | 139 RU | –
9 | KVFRRR [6mer-2-598] | 146 RU | –
10 | RRRYRK [6mer-2-599] | 121 RU | –
11 | KQLCKK [6mer-2-549] | 142 RU | –
12 | RKNEK [5mer-1200] | – | Binding affinity (RU) (acetylcholine receptor [5]): 16 RU
13 | KWVLRK [6mer-2-557] | 123 RU | –
14 | RGLLRR [6mer-2-552] | 148 RU | –
15 | KRISKR [6mer-2-587] | 148 RU | –
16 | RHSVK [5mer-900] | – | Binding affinity (RU) (acetylcholine receptor [5]): 29 RU
17 | RQYRK [5mer-300] | – | Binding affinity (RU) (acetylcholine receptor [6]): 81 RU
18 | KGIQKK [6mer-2-596] | 153 RU | –
19 | RWRCRR [6mer-2-554] | 121 RU | –
20 | RVYYKR [6mer-2-570] | 148 RU | –
21 | KWVSR [5mer-599] | – | Binding affinity (RU) (acetylcholine receptor [6]): 61 RU

Row | Binder | Binding affinity (RU) (acetylcholine receptor [1]) | other results
22 | RGYQRR [6mer-2-571] | 135 RU | –
23 | RWQCKR [6mer-2-547] | 135 RU | –
24 | RSQLKK [6mer-2-600] | 139 RU | –
25 | KLYSK [5mer-600] | – | Binding affinity (RU) (acetylcholine receptor [6]): 64 RU
26 | RSFTKK [6mer-2-550] | 148 RU | –
27 | KSRRRR [6mer-2-565] | 147 RU | –
28 | RVQQKR [6mer-2-581] | 139 RU | –
29 | KNNNR [5mer-1199] | – | Binding affinity (RU) (acetylcholine receptor [5]): 29 RU
30 | RWYRRR [6mer-2-594] | 139 RU | –
31 | RSFRRK [6mer-2-585] | 136 RU | –
32 | KLRCKK [6mer-2-595] | 154 RU | –
33 | RSQLKR [6mer-2-593] | 139 RU | –
34 | RGYSRK [6mer-2-575] | 139 RU | –
35 | KGRRK [5mer-299] | – | Binding affinity (RU) (acetylcholine receptor [6]): 62 RU
36 | KGILRR [6mer-2-591] | 146 RU | –
37 | RKRIRR [6mer-1-43] | – | Binding affinity (RU) (acetylcholine receptor [7]): 548 RU; Binding affinity (RU) (acetylcholine receptor [8]): 548 RU; Kd [9]: 0.609 µM
38 | KGVSRR [6mer-2-576] | 139 RU | –
39 | RRVLKK [6mer-2-561] | 142 RU | –
40 | RWQTRK [6mer-2-582] | 148 RU | –
41 | KGQLRR [6mer-2-559] | 121 RU | –

The next lines start with results.

Row | Binding affinity (RU) (acetylcholine receptor [1]) | Binder | other results
42 | 148 RU | RSICKK [6mer-2-556] | –
43 | 122 RU | RWVLRK [6mer-2-592] | –
44 | 141 RU | KWYTKR [6mer-2-551] | –
45 | 148 RU | KSQRRK [6mer-2-572] | –
46 | 121 RU | KWQQRR [6mer-2-580] | –
47 | 142 RU | KGFQKK [6mer-2-568] | –
48 | 124 RU | RSLQKK [6mer-2-553] | –
49 | 154 RU | KQFLRK [6mer-2-597] | –
50 | 146 RU | KLYYRK [6mer-2-567] | –
51 | 135 RU | RWQYRK [6mer-2-579] | –
52 | 121 RU | RWLSRK [6mer-2-586] | –
53 | 142 RU | RLQCRR [6mer-2-548] | –
54 | 135 RU | RWQLRK [6mer-2-569] | –
55 | 135 RU | RSVLRK [6mer-2-578] | –
56 | 154 RU | RSVSKK [6mer-2-555] | –
57 | 148 RU | KRLTRK [6mer-2-584] | –
58 | 154 RU | KSVCKK [6mer-2-558] | –
59 | 131 RU | KGYQKR [6mer-2-563] | –
60 | 139 RU | KRLSKK [6mer-2-566] | –
61 | 154 RU | KSVTKK [6mer-2-583] | –
62 | 148 RU | KQVYRK [6mer-2-564] | –
63 | 127 RU | RVFTKK [6mer-2-546] | –
64 | 149 RU | KWFYKK [6mer-2-588] | –
65 | 153 RU | RQYTRR [6mer-2-560] | –
